From publication doi:10.1101/2020.07.16.20155853 come the findings set out here.

This test concerns the target SARS-CoV-2 Cys-like protease (Mpro) (SARS-CoV-2 (Wuhan-Hu-1 strain)). The test is described as follows: SEC. For orientation: SEC sorts molecules by how far they enter the pores of the column.

As a reminder, the stoichiometry N is the number of molecules, sites or subunits per partner or assembly. Regarding “SARS-CoV-2 Cys-like protease (Mpro) (enzyme)”, the stoichiometry N turned out to be 2.
